Reference: US20030229203

Assays:
[1] = target: RANTES(1-68) (UniProt P13501)
[2] = target: MCP-2 (UniProt P80075)
[3] = target: IP-10 (UniProt P02778)
[4] = target: MCP-1 (UniProt P13500)
[5] = target: Eotaxin (UniProt P51671)
Sequence of Eotaxin (P51671 24-97): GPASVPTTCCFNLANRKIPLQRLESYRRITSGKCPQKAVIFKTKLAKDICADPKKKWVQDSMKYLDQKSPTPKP

Sequence of MCP-2 (P80075 24-99): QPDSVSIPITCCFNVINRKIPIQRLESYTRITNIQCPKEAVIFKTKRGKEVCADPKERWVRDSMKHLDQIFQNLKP
Sequence of MCP-1 (P13500 whole entry, looked up): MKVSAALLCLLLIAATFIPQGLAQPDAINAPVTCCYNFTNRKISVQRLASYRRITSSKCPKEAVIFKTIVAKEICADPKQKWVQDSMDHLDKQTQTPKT
Sequence of RANTES(1-68) (P13501 24-91): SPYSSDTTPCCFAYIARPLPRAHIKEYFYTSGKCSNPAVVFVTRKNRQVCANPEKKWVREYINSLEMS
Sequence of IP-10 (P02778 whole entry, looked up): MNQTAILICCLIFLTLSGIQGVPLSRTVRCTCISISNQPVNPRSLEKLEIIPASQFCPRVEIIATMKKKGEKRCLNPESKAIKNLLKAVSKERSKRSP

With “enzymatically active (E+) recombinant soluble human CD26 (sCD26)” the “hydrolysis of rhRANTES by sCD26 (ES-MS of cleavage products)” value [1] was 100 nM rhRANTES underwent partial to complete hydrolysis when incubated overnight at 37 °C with increasing amounts (25 to 250 (U) of sCD26, the “CD26 cleavage (ES-MS after overnight digestion with sCD26)” value (from here on “CD26 cleavage”) [2] was “Yes” and the “CD26 cleavage” value [3] was “Yes”. For the same substance, the “CD26 cleavage” value [4] was “No” and the “CD26 cleavage” value [5] was “Yes”.
